This is an account of results in publication PMC8164019 (Methods in molecular biology (Clifton, N.J.), 2020).

The series concerns the molecule itself. The series is described as follows: negative-stain EM.

B1: MxB after cleavage of the MBP tag by HRV-3C protease (natural protein, human, UniProt P20592 1-715, looked up)
chain: MSKAHKPWPYRRRSQFSSRKYLKKEMNSFQQQPPPFGTVPPQMMFPPNWQGAEKDAAFLAKDFNFLTLNNQPPPGNRSQPRAMGPENNLYSQYEQKVRPCIDLIDSLRALGVEQDLALPAIAVIGDQSSGKSSVLEALSGVALPRGSGIVTRCPLVLKLKKQPCEAWAGRISYRNTELELQDPGQVEKEIHKAQNVMAGNGRGISHELISLEITSPEVPDLTIIDLPGITRVAVDNQPRDIGLQIKALIKKYIQRQQTINLVVVPCNVDIATTEALSMAHEVDPEGDRTIGILTKPDLMDRGTEKSVMNVVRNLTYPLKKGYMIVKCRGQQEITNRLSLAEATKKEITFFQTHPYFRVLLEEGSATVPRLAERLTTELIMHIQKSLPLLEGQIRESHQKATEELRRCGADIPSQEADKMFFLIEKIKMFNQDIEKLVEGEEVVRENETRLYNKIREDFKNWVGILATNTQKVKNIIHEEVEKYEKQYRGKELLGFVNYKTFEIIVHQYIQQLVEPALSMLQKAMEIIQQAFINVAKKHFGEFFNLNQTVQSTIEDIKVKHTAKAENMIQLQFRMEQMVFCQDQIYSVVLKKVREEIFNPLGTPSQNMKLNSHFPSNESSVSSFTEIGIHLNAYFLETSKRLANQIPFIIQYFMLRENGDSLQKAMMQILQEKNRYSWLLQEQSETATKRRILKERIYRLTQARHALCQFSSKEIH
B1: the binding result was “binds”.
